In article PMC13276077:

Key:
[1] = molecular target: T1, MeCP2 MBD;histone octamer (Homo sapiens;Homo sapiens, UniProt P51608;P0C0S8;P62807;P68431;P62805 77-167;2-130;2-126;2-136;2-103, |H3.1 C96S;C110A); experiment: EMSA; no competitor DNA; 20 mM HEPES pH 7.5, 75 mM NaCl, 125 mM KCl, 50 uM EDTA, 2.5 mM beta-mercaptoethanol, 5% glycerol, BSA, 1.58 uM 47 bp competitor DNA (nucleosome assays); absent w
[2] = molecular target: MeCP2 full-length, e2 isoform;histone octamer (Homo sapiens;Homo sapiens, UniProt P51608;P0C0S8;P62807;P68431;P62805 1-486;2-130;2-126;2-136;2-103, |H3.1 C96S;C110A); experiment: as above
[3] = molecular target: MeCP2 full-length, e2 isoform;histone octamer, acidic patch mutant (Homo sapiens;Homo sapiens, UniProt P51608;P0C0S8;P62807;P68431;P62805 1-486;2-130;2-126;2-136;2-103, |H2A E61A;E91A;E92A;H2B E113A;H3.1 C96S;C110A); experiment: EMSA; acidic patch mutant histone octamer; no competitor DNA; 20 mM HEPES pH 7.5, 75 mM NaCl, 125 mM KCl, 50 uM EDTA, 2.5 mM beta-mercaptoethanol, 5% glycerol, BSA, 1.58 uM 47 bp competitor DNA (nucleosome assays); absent w
[4] = molecular target: MeCP2 MBD;histone octamer, acidic patch mutant (Homo sapiens;Homo sapiens, UniProt P51608;P0C0S8;P62807;P68431;P62805 77-167;2-130;2-126;2-136;2-103, |H2A E61A;E91A;E92A;H2B E113A;H3.1 C96S;C110A); experiment: as above
[5] = molecular target: T2, MeCP2 MBD;histone octamer, tailless H3 (Homo sapiens;Homo sapiens, UniProt P51608;P0C0S8;P62807;P68431;P62805 77-167;2-130;2-126;26-136;2-103, |H3.1 del1-24;A25C;C96S;C110A); experiment: EMSA; H3-tailless histone octamer; no competitor DNA; 20 mM HEPES pH 7.5, 75 mM NaCl, 125 mM KCl, 50 uM EDTA, 2.5 mM beta-mercaptoethanol, 5% glycerol, BSA, 1.58 uM 47 bp competitor DNA (nucleosome assays); absent w
[6] = molecular target: MeCP2 full-length, e2 isoform;histone octamer, tailless H3 (Homo sapiens;Homo sapiens, UniProt P51608;P0C0S8;P62807;P68431;P62805 1-486;2-130;2-126;26-136;2-103, |H3.1 del1-24;A25C;C96S;C110A); experiment: as above
[7] = molecular target: MeCP2 full-length, e2 isoform;histone octamer, H3Kc27me3 (Homo sapiens;Homo sapiens, UniProt P51608;P0C0S8;P62807;P68431;P62805 1-486;2-130;2-126;2-136;2-103, |H3.1 K27C (trimethyl-lysine analogue, Kc27me3);C96S;C110A); experiment: EMSA; H3K27me3 histone octamer; no competitor DNA; 20 mM HEPES pH 7.5, 75 mM NaCl, 125 mM KCl, 50 uM EDTA, 2.5 mM beta-mercaptoethanol, 5% glycerol, BSA, 1.58 uM 47 bp competitor DNA (nucleosome assays); absent w
[8] = molecular target: T3, MeCP2 MBD;histone octamer, H3Kc27me3 (Homo sapiens;Homo sapiens, UniProt P51608;P0C0S8;P62807;P68431;P62805 77-167;2-130;2-126;2-136;2-103, |H3.1 K27C (trimethyl-lysine analogue, Kc27me3);C96S;C110A); experiment: as above
[9] = molecular target: MeCP2 full-length, e2 isoform;histone octamer (Homo sapiens;, UniProt P51608;P0C0S8;P62807;P68431;P62805 1-486;2-130;2-126;2-136;2-103, |H2B T115C;H3.1 C96S;C110A); experiment: EMSA; 20 mM HEPES pH 7.5, 75 mM NaCl, 125 mM KCl, 50 uM EDTA, 2.5 mM beta-mercaptoethanol, 5% glycerol, BSA, 1.58 uM 47 bp competitor DNA (nucleosome assays); absent w
[10] = molecular target: T2, MeCP2 MBD;histone octamer, tailless H3; experiment: EMSA; H3-tailless histone octamer; 20 mM HEPES pH 7.5, 75 mM NaCl, 125 mM KCl, 50 uM EDTA, 2.5 mM beta-mercaptoethanol, 5% glycerol, BSA, 1.58 uM 47 bp competitor DNA (nucleosome assays); absent w
[11] = molecular target: T3, MeCP2 MBD;histone octamer, H3Kc27me3; experiment: EMSA; H3K27me3 (H3Kc27me3) histone octamer; 20 mM HEPES pH 7.5, 75 mM NaCl, 125 mM KCl, 50 uM EDTA, 2.5 mM beta-mercaptoethanol, 5% glycerol, BSA, 1.58 uM 47 bp competitor DNA (nucleosome assays); absent w
[12] = molecular target: MeCP2 full-length, e2 isoform;histone H1.0 25-97;histone octamer (Homo sapiens;Homo sapiens;, UniProt P51608;P07305;P0C0S8;P62807;P68431;P62805 1-486;25-97;2-130;2-126;2-136;2-103, ||H2B T115C;H3.1 C96S;C110A); experiment: EMSA; H1.0 residues 25-97 pre-bound (chromatosome); 20 mM HEPES pH 7.5, 75 mM NaCl, 125 mM KCl, 50 uM EDTA, 2.5 mM beta-mercaptoethanol, 5% glycerol, BSA, 1.58 uM 47 bp competitor DNA (nucleosome assays); absent w
[13] = molecular target: MeCP2 full-length, e2 isoform;histone H1.0 1-97;histone octamer (Homo sapiens;Homo sapiens;, UniProt P51608;P07305;P0C0S8;P62807;P68431;P62805 1-486;1-97;2-130;2-126;2-136;2-103, ||H2B T115C;H3.1 C96S;C110A); experiment: EMSA; H1.0 residues 1-97 pre-bound (chromatosome); 20 mM HEPES pH 7.5, 75 mM NaCl, 125 mM KCl, 50 uM EDTA, 2.5 mM beta-mercaptoethanol, 5% glycerol, BSA, 1.58 uM 47 bp competitor DNA (nucleosome assays); absent w
[14] = molecular target: T1, MeCP2 MBD;histone octamer; experiment: EMSA; 20 mM HEPES pH 7.5, 75 mM NaCl, 125 mM KCl, 50 uM EDTA, 2.5 mM beta-mercaptoethanol, 5% glycerol, BSA, 1.58 uM 47 bp competitor DNA (nucleosome assays); absent w
HisMBP-MeCP2 162-309 = HisMBP-MeCP2 162-309 (Homo sapiens, UniProt P51608 162-309); experiment: EMSA; 20 mM HEPES pH 7.5, 75 mM NaCl, 125 mM KCl, 50 uM EDTA, 2.5 mM beta-mercaptoethanol, 5% glycerol, BSA, 1.58 uM 47 bp competitor DNA (nucleosome assays; absent with free DNA), room temperature 30 min; conditions: protein: recombinant; tags: His-MBP; label: 5' 6-FAM; blunt
HisMBP-MeCP2 272-309 = HisMBP-MeCP2 272-309 (Homo sapiens, UniProt P51608 272-309); experiment: as above; conditions: protein: recombinant; tags: His-MBP; label: 5' 6-FAM; blunt
[15] = molecular target: HisMBP-MeCP2 205-257 (DIR) (Homo sapiens, UniProt P51608 205-257); experiment: as above; conditions: protein: recombinant; tags: His-MBP; label: 5' 6-FAM; blunt
HisMBP-MeCP2 205-309 = HisMBP-MeCP2 205-309 (Homo sapiens, UniProt P51608 205-309); experiment: as above; conditions: protein: recombinant; tags: His-MBP; label: 5' 6-FAM; blunt
HisMBP-MeCP2 258-309 = HisMBP-MeCP2 258-309 (Homo sapiens, UniProt P51608 258-309); experiment: as above; conditions: protein: recombinant; tags: His-MBP; label: 5' 6-FAM; blunt
[16] = molecular target: HisMBP-DNMT3A 1-427 K54A K56A (UniProt Q9Y6K1 1-427, K54A;K56A); experiment: as above; conditions: protein: recombinant; tags: His-MBP; label: 5' 6-FAM; blunt
Sequence of HisMBP-DNMT3A 1-427 K54A K56A (Q9Y6K1 1-427 K54A/K56A): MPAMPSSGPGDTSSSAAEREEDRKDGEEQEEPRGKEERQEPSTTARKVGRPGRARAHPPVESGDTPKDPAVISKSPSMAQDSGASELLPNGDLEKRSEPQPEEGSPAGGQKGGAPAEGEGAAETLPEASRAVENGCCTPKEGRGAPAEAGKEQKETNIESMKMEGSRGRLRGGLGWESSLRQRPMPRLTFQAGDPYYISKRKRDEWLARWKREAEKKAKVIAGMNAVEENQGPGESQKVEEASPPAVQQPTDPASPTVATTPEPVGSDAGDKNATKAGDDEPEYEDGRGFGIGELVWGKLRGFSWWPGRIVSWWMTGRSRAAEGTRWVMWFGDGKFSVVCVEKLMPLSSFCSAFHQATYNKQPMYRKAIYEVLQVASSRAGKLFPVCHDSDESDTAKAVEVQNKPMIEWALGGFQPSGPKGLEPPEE

HisMBP-DNMT3A 1-427 = HisMBP-DNMT3A 1-427 (UniProt Q9Y6K1 1-427); experiment: as above; conditions: protein: recombinant; tags: His-MBP; label: 5' 6-FAM; blunt
Sequence of HisMBP-DNMT3A 1-427 (Q9Y6K1 1-427): as the sequence (Q9Y6K1 1-427 K54A/K56A) above, with A54K, A56K counted along it

B1: N601 nucleosome core particle -1 meCpG (nucleosome)
DNA 1: CAGGATGTATATATCTGACACGTGCCTGGAGACTAGGGAGTAATCCCCTTGGCGGTTAAAACGCGGGGGACAGCGCGTACGTGCGTTTAAGCGGTGCTAGAGCTGTCTACGACCAATTGAGCGGCCTCGGCACCGGGATTCTCCA
DNA 2: TGGAGAATCCCGGTGCCGAGGCCGCTCAATTGGTCGTAGACAGCTCTAGCACCGCTTAAACGCACGTACGCGCTGTCCCCCGCGTTTTAACCGCCAAGGGGATTACTCCCTAGTCTCCAGGCACGTGTCAGATATATACATCCTG
modifications: meCpG at -1
B1 showed a Kd [1] of 50.7 nM, a Kd [2] of 44.2 nM and a Kd [3] of 49.7 nM. It also gave a Kd [4] of 51.5 nM, a Kd [5] of 35.5 nM and a Kd [6] of 29.2 nM. The Kd [7] was 56.8 nM, the Kd [8] was 85.5 nM and the binding result [9] was “no binding”.

B2: 15-N601-15 nucleosome 81 meCpA (nucleosome)
DNA 1: ATGGAACACATTGCACAGGATGTATATATCTGACACGTGCCTGGAGACTAGGGAGTAATCCCCTTGGCGGTTAAAACGCGGGGGACAGCGCGTACGTGCGTTTAAGCGGTGCTAGAGCTGTCTACGACCAATTGAGCGGCCTCGGCACCGGGATTCTCCAGGGCGGCCGCGTATT
DNA 2: AATACGCGGCCGCCCTGGAGAATCCCGGTGCCGAGGCCGCTCAATTGGTCGTAGACAGCTCTAGCACCGCTTAAACGCACGTACGCGCTGTCCCCCGCGTTTTAACCGCCAAGGGGATTACTCCCTAGTCTCCAGGCACGTGTCAGATATATACATCCTGTGCAATGTGTTCCAT
modifications: linker meCpA 81 bp from dyad
Work on B2 yielded a Kd [10] of 334 nM, a Kd [11] of 442 nM and a Kd [12] of 295 nM. The Kd [13] was 382 nM, the Kd [14] was 424 nM and the Kd [9] was 141 nM.

B3: 40 bp dsDNA (dsDNA)
DNA 1: AATACGCGGCCGCCCTGGAGAATCCCGGTGCCGAGGCCGC
DNA 2: GCGGCCTCGGCACCGGGATTCTCCAGGGCGGCCGCGTATT
In the case of B3, the Kd (HisMBP-MeCP2 162-309) is reported as 31.6 ± 1.7 nM, the binding result (HisMBP-MeCP2 272-309) is reported as “no binding” and the Kd [15] is reported as 216 ± 9.2 nM. It also gave a Kd (HisMBP-MeCP2 205-309) of 77.5 ± 4.8 nM, a Kd (HisMBP-MeCP2 258-309) of 167 ± 8.5 nM and a Kd [16] of 367 ± 27.5 nM. The Kd (HisMBP-DNMT3A 1-427) was 87.8 ± 5.2 nM.
